The assay deals with human NGF (human), P01138. The assay can be described thus: cell-based or functional assay.
Sequence of human NGF (human), P01138 (P01138 122-241 limits assumed): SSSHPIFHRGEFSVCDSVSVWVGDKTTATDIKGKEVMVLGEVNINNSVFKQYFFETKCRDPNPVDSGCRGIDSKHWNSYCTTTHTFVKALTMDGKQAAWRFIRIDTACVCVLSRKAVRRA

B1: antibody E3 (full antibody) (antibody, human IgG2, kappa)
heavy: QVQLQESGPGLVKPSETLSLTCTVSGFSLIGYDLNWIRQPPGKGLEWIGIIWGDGTTDYNSAVKSRVTISKDTSKNQFSLKLSSVTAADTAVYYCARGGYWYATSYYFDYWGQGTLVTVSSASTKGPSVFPLAPCSRSTSESTAALGCLVKDYFPEPVTVSWNSGALTSGVHTFPAVLQSSGLYSLSSVVTVPSSNFGTQTYTCNVDHKPSNTKVDKTVERKCCVECPPCPAPPVAGPSVFLFPPKPKDTLMISRTPEVTCVVVDVSHEDPEVQFNWYVDGVEVHNAKTKPREEQFNSTFRVVSVLTVVHQDWLNGKEYKCKVSNKGLPSSIEKTISKTKGQPREPQVYTLPPSREEMTKNQVSLTCLVKGFYPSDIAVEWESNGQPENNYKTTPPMLDSDGSFFLYSKLTVDKSRWQQGNVFSCSVMHEALHNHYTQKSLSLSPGK
light: not shown
modifications: not checked
For the molecule B1, the antibody concentration that totally blocked NGF-elicited survival of trigeminal neurons worked out at 20 nM.

The record behind these values is patent US20140017235A1.
